Patent publication US20180022822A1, “NOVEL ANTI-FIBROBLAST ACTIVATION PROTEIN (FAP) BINDING AGENTS AND USES THEREOF” (Mabimmune Diagnostics AG, priority 2016, published 2018)

What was measured:
[1] = test system: arterial occlusion (thrombosis); test: carotid artery photochemical injury-induced thrombosis model; assay type: in vivo, mouse
Procedure: The carotid artery photochemical injury-induced thrombosis model begins with anesthesia by intraperitoneal injection of sodium pentobarbital (87 mg/kg body weight). After slight tail warming (using warm water) rose bengal (10 mg/mL in PBS) is injected into the tail vein in a volume of 0.12 mL at a concentration of 50 mg/kg. Mice will then be secured in a supine position (with the head pointing towards the operator) and placed on a heating pad (rectal temperature will be monitored) under a dissecting microscope. Following a (2.5-3 cm) midline cervical incision and a small incision of the larynx to provide a tracheostoma, by blunt preparation the right common carotid artery is exposed and cleared of connective tissue. A surgical stitch is employed to fix the sternocleidomastoid muscle aside to the right and increase access area to the right carotid artery. Care must be taken to avoid excessive vessel manipulation during procedures. Curved-tip tweezers will be employed to slide under the vessel (from the left side) and gently lift it so as to place the probe under and around it. The probe will be placed as proximal as the access area allows it to be and its connection wire should then be placed on a micromanipulator to fine-adjust its position. (The probe should be perfectly aligned with the vessel so as not to cause any resistance to flow). Little surgical ultrasonic gel should be applied on top of the probe to increase signal quality. Within 6 minutes of Rose Bengal injection, a laser beam will be aimed at the carotid artery and kept at fixed distance of 6 cm for 60 minutes. Flow will be measured during these 60 minutes and for further 60 minutes (max time elapse 120 minutes) or until occlusion occurs. Occlusion is considered as a constant (≧1 min) flow below 0.1 ml/min. Mice are euthanized by an overdose of pentobarbital immediately (25 mg) after the occlusion analysis is completed.
Mice will be placed on a heating pad, to avoid a drop of body temperature. Heart rate (probe measuring the blood flow will also measure the heart rate) will be monitored during the surgery. Anethesia depth will be checked before starting the surgery and during the experiment by pedal withdrawal reflex (animals hind limb will be extended and the interdigital webbing of the foot will firmly pinched by the use of an atraumatic forceps; if there is no withdrawal reaction to the toe pinch, animals will be judged deep enough).
The chosen dose of anesthesia sodium pentobarbital (87 mg/kg body weight) is sufficient to keep the animal in deep anesthesia for the whole duration of the experiment. No second dosing is necessary. […]

[2] = target: T1, active recombinant mouse FAP (Mus musculus, UniProt P97321); test: DQ-gelatin cleavage inhibition, active recombinant mouse FAP; assay type: biochemical
T1 construct: expressed in a HEK293 cell line without the transmembrane and intracellular domains and an N-terminal 6× histidine tag; made in house; host or cells: HEK293
T1 sequence (P97321 26-761 limits assumed): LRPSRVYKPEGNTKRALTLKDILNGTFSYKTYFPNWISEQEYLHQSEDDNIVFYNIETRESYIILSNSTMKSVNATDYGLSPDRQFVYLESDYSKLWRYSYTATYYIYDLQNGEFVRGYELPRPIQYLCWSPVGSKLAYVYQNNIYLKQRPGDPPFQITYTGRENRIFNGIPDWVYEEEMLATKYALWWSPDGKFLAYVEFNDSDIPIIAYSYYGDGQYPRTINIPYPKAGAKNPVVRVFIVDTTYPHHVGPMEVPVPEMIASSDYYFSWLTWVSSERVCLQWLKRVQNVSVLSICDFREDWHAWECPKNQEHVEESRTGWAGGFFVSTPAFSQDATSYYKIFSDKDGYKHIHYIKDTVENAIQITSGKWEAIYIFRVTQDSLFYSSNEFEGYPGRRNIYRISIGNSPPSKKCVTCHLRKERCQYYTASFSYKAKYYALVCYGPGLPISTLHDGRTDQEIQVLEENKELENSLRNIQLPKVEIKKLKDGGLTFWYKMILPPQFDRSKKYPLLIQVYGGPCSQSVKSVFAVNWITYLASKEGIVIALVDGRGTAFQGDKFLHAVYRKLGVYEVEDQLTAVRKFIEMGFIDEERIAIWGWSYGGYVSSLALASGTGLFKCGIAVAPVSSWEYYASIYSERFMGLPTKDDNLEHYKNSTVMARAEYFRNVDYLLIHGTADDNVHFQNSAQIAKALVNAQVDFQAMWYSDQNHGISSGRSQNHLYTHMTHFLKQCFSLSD
Procedure: To determine the inhibitory ability of NI-206.82C2 against active recombinant murine FAP, recombinant murine FAP was expressed in a HEK293 cell line without the transmembrane and intracellular domains and an N-terminal 6× histidine tag. A 96-well ELISA plate was then coated with 50 uL of murine anti-His tag antibody at 6 μg/mL in PBS overnight at 4° C. The wells were then blocked with 60 μL of 2% BSA in PBS for 1 h at room temperature, and 50 μL of recombinant mouse FAP containing cell culture supernatant diluted 1:4 was added to the well and incubated overnight at 4C while gently shaking. Following three washing steps with PBS, 20 uL of sterile 12.5% BSA/PBS solution was added to all wells.

[3] = test system: MOPC315.BM multiple myeloma cells and tumor stroma; test: immunofluorescence on murine multiple myeloma bone tissue; set-up: species or system mouse; settings: Cy5 labelled antibody, bone sections
Procedure: BALB/c mice were injected with 2×10^6 of the murine multiple myeloma cell line […] intravenously. BALB/c mice were injected with a vehicle-only control. Bone tissue was harvested and fixed in 4% PFA, decalcified in 10% EDTA (pH 7.4), embedded in paraffin before being sectioned (4 μm) and rehydrated. Then, CD138 mAb (Clone 281-2, BD Pharmingen) and Cy5 labelled NI-206.82C2 were used to identify MOPC315.BM.Luc cell infiltration, and NI-206.82C2 binding to these cells and surrounding stromal cells in the tissue sections. Stained tissue sections were then imaged using a fluorescent microscope (FIG. 13).

[4] = test system: MC38 colorectal tumors; test: orthotopic syngeneic MC38 colorectal cancer model, MRI; assay type: in vivo, mouse; settings: 20 mg/kg i.p. every 72 hours, 5 cycles, versus PBS
Procedure: […] mice were anesthetized by isofluorane inhalation, and the hepatic portal vein was accessed by median laparotomy (from xiphoid 4 cm caudally). Mice were injected with 1 million murine MC38 colorectal cancer cells. The origin of these cell is described in Science 19 Sep. 1986. MC-38 tumors were allowed to form for 7 days before treatment. Mice were treated with either PBS or NI-206.82C2 (20 mg/kg by intraperitoneal injection) every 72 hours for 5 treatment cycles, before being anesthetized by isofluourane inhalation. Small animal MRI imaging was performed using a Bruker 4.7 Tesla MRI to aquire images of liver metastases. Tumor images were analyzed on Myrian Software (Intrasense) to quantify tumor metastases and cumulative tumor diameter overall tumor burden.

potency for inhibiting active recombinant mouse FAP compared to Val-boro-Pro and F19 [2]: higher potency
B1: NI-206.82C2: human-derived recombinant anti-FAP antibody; VH SEQ ID NO: 2 or 4 (PIMC), VL SEQ ID NO: 6 (antibody, V domains shown)
VH: QVQLQQSGPGLVKPSQTLSLTCAISGDSVSSNSVTWNWIRQSPSRGLEWLGRTYYRSKWYNDYAVSVKGRITINPDTSKNQFYLQLKSVTPEDAAVYYCARDSSILYGDYWGQGTLVTVSS
VL: QAVLTQPSSLSASPGASASLTCTLPSGINVGTYRIFWFQQKPGSPPQYLLSYKSDSDNHQGSGVPSRFSGSKDASANAGILLISGLQSEDEADYYCMIWHSSAWVFGGGTKLTVL
occlusion time ([1]; 20 mg/kg i.v. versus vehicle control, n=4): significantly prolonged
median time to occlusion ([1]; 2, 7 and 20 mg/kg versus PBS and 43A11): dose-dependent increase
Log-rank hazard ratio of arterial occlusion ([1]; versus 43A11 isotype control): 0.04
dose at which significant increase in median time to occlusion starts ([1]; versus PBS and 43A11 at 20 mg/kg): 2 mg/kg
binding in the syngeneic MOPC315.BM mouse model [3]: binds to multiple myeloma cells and tumor stroma
cumulative tumor diameter [4]: reduced
number of metastases [4]: reduced
